Consider 20 molecules from patent US20180155451A1 (published 2018).

B1: GpH7-B3 variant S337_02A/GpL16-k0 (antibody, human IgG1, kappa)
heavy: not shown
light: DIVMTQSPLSLPVTPGEPASISCQASESLVHSNRNTYLHWYLQKPGQSPQLLIYKVSNRFSGVPDRFSGSGSGTDFTLKISRVEAEDVGVYYCSQNTHVPPTFGQGTKVEIERTVAAPSVFIFPPSDEQLKSGTASVVCLLNNFYPREAKVQWKVDNALQSGNSQESVTEQDSKDSTYSLSSTLTLSKADYEKHKVYACEVTHQGLSSPVTKSFNRGEC
notes: homodimerized; mutation in both H chains; also called Ho Ab
B2: GpH7-B3 variant K326_20W/GpL16-k0 (antibody, human IgG1, kappa)
heavy: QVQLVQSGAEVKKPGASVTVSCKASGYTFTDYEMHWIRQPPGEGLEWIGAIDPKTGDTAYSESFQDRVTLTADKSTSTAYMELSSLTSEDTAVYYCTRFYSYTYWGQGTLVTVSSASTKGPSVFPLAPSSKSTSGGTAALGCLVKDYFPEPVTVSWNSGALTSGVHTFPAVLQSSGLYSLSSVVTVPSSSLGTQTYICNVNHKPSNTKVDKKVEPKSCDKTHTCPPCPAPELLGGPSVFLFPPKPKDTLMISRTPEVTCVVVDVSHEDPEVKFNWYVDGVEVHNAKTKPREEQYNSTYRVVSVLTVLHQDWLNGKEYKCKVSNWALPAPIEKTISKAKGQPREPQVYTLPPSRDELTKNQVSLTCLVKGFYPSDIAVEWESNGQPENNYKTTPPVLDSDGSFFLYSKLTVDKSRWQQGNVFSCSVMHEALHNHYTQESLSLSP
light: DIVMTQSPLSLPVTPGEPASISCQASESLVHSNRNTYLHWYLQKPGQSPQLLIYKVSNRFSGVPDRFSGSGSGTDFTLKISRVEAEDVGVYYCSQNTHVPPTFGQGTKVEIERTVAAPSVFIFPPSDEQLKSGTASVVCLLNNFYPREAKVQWKVDNALQSGNSQESVTEQDSKDSTYSLSSTLTLSKADYEKHKVYACEVTHQGLSSPVTKSFNRGEC
notes: as for B1
B3: GpH7-B3 variant A327_09D/GpL16-k0 (antibody, human IgG1, kappa)
heavy: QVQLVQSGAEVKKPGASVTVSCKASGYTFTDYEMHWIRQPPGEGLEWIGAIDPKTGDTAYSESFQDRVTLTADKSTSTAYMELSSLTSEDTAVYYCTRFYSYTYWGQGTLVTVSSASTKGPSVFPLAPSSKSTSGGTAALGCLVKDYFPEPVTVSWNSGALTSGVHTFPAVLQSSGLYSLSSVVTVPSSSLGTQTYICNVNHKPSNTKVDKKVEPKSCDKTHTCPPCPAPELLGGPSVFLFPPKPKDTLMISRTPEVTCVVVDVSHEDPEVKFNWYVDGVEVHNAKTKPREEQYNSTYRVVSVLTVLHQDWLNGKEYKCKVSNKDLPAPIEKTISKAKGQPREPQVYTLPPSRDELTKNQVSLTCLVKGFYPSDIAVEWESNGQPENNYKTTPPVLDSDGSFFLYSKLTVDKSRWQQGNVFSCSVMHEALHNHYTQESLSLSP
light: DIVMTQSPLSLPVTPGEPASISCQASESLVHSNRNTYLHWYLQKPGQSPQLLIYKVSNRFSGVPDRFSGSGSGTDFTLKISRVEAEDVGVYYCSQNTHVPPTFGQGTKVEIERTVAAPSVFIFPPSDEQLKSGTASVVCLLNNFYPREAKVQWKVDNALQSGNSQESVTEQDSKDSTYSLSSTLTLSKADYEKHKVYACEVTHQGLSSPVTKSFNRGEC
notes: as for B1
B4: GpH7-B3 variant G237_20W/GpL16-k0 (antibody, human IgG1, kappa)
heavy: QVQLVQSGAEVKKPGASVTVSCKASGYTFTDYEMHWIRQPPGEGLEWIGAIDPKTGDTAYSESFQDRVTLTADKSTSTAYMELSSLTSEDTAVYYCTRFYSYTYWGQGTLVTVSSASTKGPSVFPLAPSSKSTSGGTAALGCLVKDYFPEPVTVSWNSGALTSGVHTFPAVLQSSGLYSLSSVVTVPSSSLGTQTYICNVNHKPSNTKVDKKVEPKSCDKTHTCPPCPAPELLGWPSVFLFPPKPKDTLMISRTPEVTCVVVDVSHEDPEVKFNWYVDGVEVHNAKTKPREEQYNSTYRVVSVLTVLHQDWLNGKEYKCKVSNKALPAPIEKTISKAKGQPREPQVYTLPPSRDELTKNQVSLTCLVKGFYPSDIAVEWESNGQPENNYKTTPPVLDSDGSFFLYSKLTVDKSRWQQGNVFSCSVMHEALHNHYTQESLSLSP
light: DIVMTQSPLSLPVTPGEPASISCQASESLVHSNRNTYLHWYLQKPGQSPQLLIYKVSNRFSGVPDRFSGSGSGTDFTLKISRVEAEDVGVYYCSQNTHVPPTFGQGTKVEIERTVAAPSVFIFPPSDEQLKSGTASVVCLLNNFYPREAKVQWKVDNALQSGNSQESVTEQDSKDSTYSLSSTLTLSKADYEKHKVYACEVTHQGLSSPVTKSFNRGEC
notes: as for B1
B5: GpH7-B3 variant K334_02A/GpL16-k0 (antibody, human IgG1, kappa)
heavy: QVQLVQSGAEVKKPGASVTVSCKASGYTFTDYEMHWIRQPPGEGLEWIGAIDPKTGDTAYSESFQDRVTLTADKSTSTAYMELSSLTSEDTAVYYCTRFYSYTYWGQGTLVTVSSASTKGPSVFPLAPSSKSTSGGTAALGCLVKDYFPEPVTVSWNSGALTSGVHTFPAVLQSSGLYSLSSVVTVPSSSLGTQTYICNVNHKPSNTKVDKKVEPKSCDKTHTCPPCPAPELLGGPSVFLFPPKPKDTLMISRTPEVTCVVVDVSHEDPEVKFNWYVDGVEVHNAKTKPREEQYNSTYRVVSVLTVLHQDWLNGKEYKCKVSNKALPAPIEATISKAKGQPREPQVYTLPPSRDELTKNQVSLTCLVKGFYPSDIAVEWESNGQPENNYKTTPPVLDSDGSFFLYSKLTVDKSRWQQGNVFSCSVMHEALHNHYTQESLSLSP
light: DIVMTQSPLSLPVTPGEPASISCQASESLVHSNRNTYLHWYLQKPGQSPQLLIYKVSNRFSGVPDRFSGSGSGTDFTLKISRVEAEDVGVYYCSQNTHVPPTFGQGTKVEIERTVAAPSVFIFPPSDEQLKSGTASVVCLLNNFYPREAKVQWKVDNALQSGNSQESVTEQDSKDSTYSLSSTLTLSKADYEKHKVYACEVTHQGLSSPVTKSFNRGEC
notes: as for B1
B6: GpH7-B3 variant A327_10E/GpL16-k0 (antibody, human IgG1, kappa)
heavy: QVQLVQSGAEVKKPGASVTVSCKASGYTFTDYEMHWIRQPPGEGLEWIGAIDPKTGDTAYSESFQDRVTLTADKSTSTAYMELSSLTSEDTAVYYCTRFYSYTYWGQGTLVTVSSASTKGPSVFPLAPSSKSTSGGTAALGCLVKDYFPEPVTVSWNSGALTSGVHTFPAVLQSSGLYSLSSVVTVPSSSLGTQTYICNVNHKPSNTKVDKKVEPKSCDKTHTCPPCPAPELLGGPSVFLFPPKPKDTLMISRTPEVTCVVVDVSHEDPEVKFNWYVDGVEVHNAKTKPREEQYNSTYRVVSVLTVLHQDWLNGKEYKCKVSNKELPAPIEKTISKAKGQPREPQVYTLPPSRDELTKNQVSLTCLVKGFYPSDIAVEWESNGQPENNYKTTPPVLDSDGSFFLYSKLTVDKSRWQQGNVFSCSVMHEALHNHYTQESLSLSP
light: DIVMTQSPLSLPVTPGEPASISCQASESLVHSNRNTYLHWYLQKPGQSPQLLIYKVSNRFSGVPDRFSGSGSGTDFTLKISRVEAEDVGVYYCSQNTHVPPTFGQGTKVEIERTVAAPSVFIFPPSDEQLKSGTASVVCLLNNFYPREAKVQWKVDNALQSGNSQESVTEQDSKDSTYSLSSTLTLSKADYEKHKVYACEVTHQGLSSPVTKSFNRGEC
notes: as for B1
B7: GpH7-B3 variant K326_03V/GpL16-k0 (antibody, human IgG1, kappa)
heavy: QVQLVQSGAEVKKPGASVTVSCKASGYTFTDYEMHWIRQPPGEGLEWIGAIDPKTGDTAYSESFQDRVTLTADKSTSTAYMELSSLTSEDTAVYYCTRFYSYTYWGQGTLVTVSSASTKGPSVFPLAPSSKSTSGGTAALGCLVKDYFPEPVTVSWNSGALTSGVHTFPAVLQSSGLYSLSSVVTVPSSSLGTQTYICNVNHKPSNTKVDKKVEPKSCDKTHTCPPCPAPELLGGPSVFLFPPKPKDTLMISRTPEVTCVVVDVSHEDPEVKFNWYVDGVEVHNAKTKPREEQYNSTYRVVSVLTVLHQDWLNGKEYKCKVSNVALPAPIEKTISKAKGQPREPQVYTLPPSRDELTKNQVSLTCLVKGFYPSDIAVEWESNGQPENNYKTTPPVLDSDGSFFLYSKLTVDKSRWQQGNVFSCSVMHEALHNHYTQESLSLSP
light: DIVMTQSPLSLPVTPGEPASISCQASESLVHSNRNTYLHWYLQKPGQSPQLLIYKVSNRFSGVPDRFSGSGSGTDFTLKISRVEAEDVGVYYCSQNTHVPPTFGQGTKVEIERTVAAPSVFIFPPSDEQLKSGTASVVCLLNNFYPREAKVQWKVDNALQSGNSQESVTEQDSKDSTYSLSSTLTLSKADYEKHKVYACEVTHQGLSSPVTKSFNRGEC
notes: as for B1
B8: GpH7-B3 variant K326_08L/GpL16-k0 (antibody, human IgG1, kappa)
heavy: not shown
light: DIVMTQSPLSLPVTPGEPASISCQASESLVHSNRNTYLHWYLQKPGQSPQLLIYKVSNRFSGVPDRFSGSGSGTDFTLKISRVEAEDVGVYYCSQNTHVPPTFGQGTKVEIERTVAAPSVFIFPPSDEQLKSGTASVVCLLNNFYPREAKVQWKVDNALQSGNSQESVTEQDSKDSTYSLSSTLTLSKADYEKHKVYACEVTHQGLSSPVTKSFNRGEC
notes: as for B1
B9: GpH7-B3 variant I332_06M/GpL16-k0 (antibody, human IgG1, kappa)
heavy: not shown
light: DIVMTQSPLSLPVTPGEPASISCQASESLVHSNRNTYLHWYLQKPGQSPQLLIYKVSNRFSGVPDRFSGSGSGTDFTLKISRVEAEDVGVYYCSQNTHVPPTFGQGTKVEIERTVAAPSVFIFPPSDEQLKSGTASVVCLLNNFYPREAKVQWKVDNALQSGNSQESVTEQDSKDSTYSLSSTLTLSKADYEKHKVYACEVTHQGLSSPVTKSFNRGEC
notes: as for B1
B10: GpH7-B3 variant K334_04F/GpL16-k0 (antibody, human IgG1, kappa)
heavy: not shown
light: DIVMTQSPLSLPVTPGEPASISCQASESLVHSNRNTYLHWYLQKPGQSPQLLIYKVSNRFSGVPDRFSGSGSGTDFTLKISRVEAEDVGVYYCSQNTHVPPTFGQGTKVEIERTVAAPSVFIFPPSDEQLKSGTASVVCLLNNFYPREAKVQWKVDNALQSGNSQESVTEQDSKDSTYSLSSTLTLSKADYEKHKVYACEVTHQGLSSPVTKSFNRGEC
notes: as for B1
B11: GpH7-B3 variant K326_15Y/GpL16-k0 (antibody, human IgG1, kappa)
heavy: not shown
light: DIVMTQSPLSLPVTPGEPASISCQASESLVHSNRNTYLHWYLQKPGQSPQLLIYKVSNRFSGVPDRFSGSGSGTDFTLKISRVEAEDVGVYYCSQNTHVPPTFGQGTKVEIERTVAAPSVFIFPPSDEQLKSGTASVVCLLNNFYPREAKVQWKVDNALQSGNSQESVTEQDSKDSTYSLSSTLTLSKADYEKHKVYACEVTHQGLSSPVTKSFNRGEC
notes: as for B1
B12: GpH7-B3 variant H268_01G/GpL16-k0 (antibody, human IgG1, kappa)
heavy: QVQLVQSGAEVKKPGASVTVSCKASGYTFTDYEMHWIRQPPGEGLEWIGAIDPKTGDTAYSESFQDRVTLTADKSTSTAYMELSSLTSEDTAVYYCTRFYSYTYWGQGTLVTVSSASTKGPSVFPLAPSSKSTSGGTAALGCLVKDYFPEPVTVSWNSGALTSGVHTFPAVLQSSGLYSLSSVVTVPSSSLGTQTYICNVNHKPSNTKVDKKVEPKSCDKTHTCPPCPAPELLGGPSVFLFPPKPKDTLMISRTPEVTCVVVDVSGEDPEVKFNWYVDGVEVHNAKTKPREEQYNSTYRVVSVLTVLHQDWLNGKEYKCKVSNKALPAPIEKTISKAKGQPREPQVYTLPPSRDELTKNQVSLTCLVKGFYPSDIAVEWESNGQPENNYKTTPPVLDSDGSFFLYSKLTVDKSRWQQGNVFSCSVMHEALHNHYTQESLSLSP
light: DIVMTQSPLSLPVTPGEPASISCQASESLVHSNRNTYLHWYLQKPGQSPQLLIYKVSNRFSGVPDRFSGSGSGTDFTLKISRVEAEDVGVYYCSQNTHVPPTFGQGTKVEIERTVAAPSVFIFPPSDEQLKSGTASVVCLLNNFYPREAKVQWKVDNALQSGNSQESVTEQDSKDSTYSLSSTLTLSKADYEKHKVYACEVTHQGLSSPVTKSFNRGEC
notes: as for B1
B13: GpH7-B3 variant K326_07I/GpL16-k0 (antibody, human IgG1, kappa)
heavy: not shown
light: DIVMTQSPLSLPVTPGEPASISCQASESLVHSNRNTYLHWYLQKPGQSPQLLIYKVSNRFSGVPDRFSGSGSGTDFTLKISRVEAEDVGVYYCSQNTHVPPTFGQGTKVEIERTVAAPSVFIFPPSDEQLKSGTASVVCLLNNFYPREAKVQWKVDNALQSGNSQESVTEQDSKDSTYSLSSTLTLSKADYEKHKVYACEVTHQGLSSPVTKSFNRGEC
notes: as for B1
B14: GpH7-B3 variant I336_08L/GpL16-k0 (antibody, human IgG1, kappa)
heavy: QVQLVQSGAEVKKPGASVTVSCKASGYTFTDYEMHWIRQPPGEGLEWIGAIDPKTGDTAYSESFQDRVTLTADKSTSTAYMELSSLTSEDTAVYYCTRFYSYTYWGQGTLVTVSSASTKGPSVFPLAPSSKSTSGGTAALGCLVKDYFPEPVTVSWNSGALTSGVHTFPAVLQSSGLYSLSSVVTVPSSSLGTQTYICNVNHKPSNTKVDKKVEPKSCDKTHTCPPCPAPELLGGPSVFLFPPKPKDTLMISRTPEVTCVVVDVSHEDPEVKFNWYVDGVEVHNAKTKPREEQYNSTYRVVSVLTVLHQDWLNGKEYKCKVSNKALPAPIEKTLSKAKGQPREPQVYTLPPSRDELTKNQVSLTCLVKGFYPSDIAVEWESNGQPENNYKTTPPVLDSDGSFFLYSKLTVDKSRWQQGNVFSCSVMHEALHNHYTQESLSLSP
light: DIVMTQSPLSLPVTPGEPASISCQASESLVHSNRNTYLHWYLQKPGQSPQLLIYKVSNRFSGVPDRFSGSGSGTDFTLKISRVEAEDVGVYYCSQNTHVPPTFGQGTKVEIERTVAAPSVFIFPPSDEQLKSGTASVVCLLNNFYPREAKVQWKVDNALQSGNSQESVTEQDSKDSTYSLSSTLTLSKADYEKHKVYACEVTHQGLSSPVTKSFNRGEC
notes: as for B1
B15: GpH7-B3 variant G237_04F/GpL16-k0 (antibody, human IgG1, kappa)
heavy: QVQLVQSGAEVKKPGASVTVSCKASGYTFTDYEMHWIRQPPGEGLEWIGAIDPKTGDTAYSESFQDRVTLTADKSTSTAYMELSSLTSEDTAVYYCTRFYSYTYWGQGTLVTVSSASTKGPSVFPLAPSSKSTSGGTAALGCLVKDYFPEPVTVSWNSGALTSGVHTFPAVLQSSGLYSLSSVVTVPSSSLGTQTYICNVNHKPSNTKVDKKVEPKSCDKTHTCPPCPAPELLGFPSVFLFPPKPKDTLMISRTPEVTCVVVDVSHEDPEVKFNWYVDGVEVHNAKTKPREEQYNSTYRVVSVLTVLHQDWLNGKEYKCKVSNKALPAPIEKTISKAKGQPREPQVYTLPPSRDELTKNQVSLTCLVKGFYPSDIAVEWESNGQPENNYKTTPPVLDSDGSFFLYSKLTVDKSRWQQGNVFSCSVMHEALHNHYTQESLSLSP
light: DIVMTQSPLSLPVTPGEPASISCQASESLVHSNRNTYLHWYLQKPGQSPQLLIYKVSNRFSGVPDRFSGSGSGTDFTLKISRVEAEDVGVYYCSQNTHVPPTFGQGTKVEIERTVAAPSVFIFPPSDEQLKSGTASVVCLLNNFYPREAKVQWKVDNALQSGNSQESVTEQDSKDSTYSLSSTLTLSKADYEKHKVYACEVTHQGLSSPVTKSFNRGEC
notes: as for B1
B16: GpH7-B3 variant K326_04F/GpL16-k0 (antibody, human IgG1, kappa)
heavy: not shown
light: DIVMTQSPLSLPVTPGEPASISCQASESLVHSNRNTYLHWYLQKPGQSPQLLIYKVSNRFSGVPDRFSGSGSGTDFTLKISRVEAEDVGVYYCSQNTHVPPTFGQGTKVEIERTVAAPSVFIFPPSDEQLKSGTASVVCLLNNFYPREAKVQWKVDNALQSGNSQESVTEQDSKDSTYSLSSTLTLSKADYEKHKVYACEVTHQGLSSPVTKSFNRGEC
notes: as for B1
B17: GpH7-B3 variant A330_12R/GpL16-k0 (antibody, human IgG1, kappa)
heavy: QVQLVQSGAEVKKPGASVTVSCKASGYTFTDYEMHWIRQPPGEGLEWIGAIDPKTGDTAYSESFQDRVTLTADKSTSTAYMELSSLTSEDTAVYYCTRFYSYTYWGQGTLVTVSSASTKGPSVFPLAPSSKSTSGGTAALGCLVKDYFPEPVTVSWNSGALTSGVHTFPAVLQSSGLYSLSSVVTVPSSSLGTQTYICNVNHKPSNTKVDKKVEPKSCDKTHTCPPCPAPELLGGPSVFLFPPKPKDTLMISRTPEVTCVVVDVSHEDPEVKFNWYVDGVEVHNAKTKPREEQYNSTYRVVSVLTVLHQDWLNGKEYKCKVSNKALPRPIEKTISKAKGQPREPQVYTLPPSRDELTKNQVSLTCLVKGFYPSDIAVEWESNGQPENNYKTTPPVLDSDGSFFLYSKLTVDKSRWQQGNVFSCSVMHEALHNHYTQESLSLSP
light: DIVMTQSPLSLPVTPGEPASISCQASESLVHSNRNTYLHWYLQKPGQSPQLLIYKVSNRFSGVPDRFSGSGSGTDFTLKISRVEAEDVGVYYCSQNTHVPPTFGQGTKVEIERTVAAPSVFIFPPSDEQLKSGTASVVCLLNNFYPREAKVQWKVDNALQSGNSQESVTEQDSKDSTYSLSSTLTLSKADYEKHKVYACEVTHQGLSSPVTKSFNRGEC
notes: as for B1
B18: GpH7-B3 variant A330_01G/GpL16-k0 (antibody, human IgG1, kappa)
heavy: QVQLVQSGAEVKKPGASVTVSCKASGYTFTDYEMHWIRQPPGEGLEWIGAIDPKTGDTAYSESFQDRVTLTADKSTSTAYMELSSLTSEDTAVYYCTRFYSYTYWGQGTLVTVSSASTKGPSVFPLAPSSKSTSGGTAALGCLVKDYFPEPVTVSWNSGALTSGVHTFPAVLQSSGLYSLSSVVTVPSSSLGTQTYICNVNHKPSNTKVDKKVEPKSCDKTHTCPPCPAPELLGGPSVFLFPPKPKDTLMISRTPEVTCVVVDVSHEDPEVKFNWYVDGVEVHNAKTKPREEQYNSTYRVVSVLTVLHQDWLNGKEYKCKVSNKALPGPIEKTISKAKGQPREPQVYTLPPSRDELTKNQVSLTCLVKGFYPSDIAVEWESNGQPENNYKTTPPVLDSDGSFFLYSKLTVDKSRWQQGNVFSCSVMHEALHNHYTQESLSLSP
light: DIVMTQSPLSLPVTPGEPASISCQASESLVHSNRNTYLHWYLQKPGQSPQLLIYKVSNRFSGVPDRFSGSGSGTDFTLKISRVEAEDVGVYYCSQNTHVPPTFGQGTKVEIERTVAAPSVFIFPPSDEQLKSGTASVVCLLNNFYPREAKVQWKVDNALQSGNSQESVTEQDSKDSTYSLSSTLTLSKADYEKHKVYACEVTHQGLSSPVTKSFNRGEC
notes: as for B1
B19: GpH7-A5/GpH7-B3 variant T335_16H/GpL16-k0 (antibody, human IgG1, kappa)
heavy 1: not shown
heavy 2: not shown
light: DIVMTQSPLSLPVTPGEPASISCQASESLVHSNRNTYLHWYLQKPGQSPQLLIYKVSNRFSGVPDRFSGSGSGTDFTLKISRVEAEDVGVYYCSQNTHVPPTFGQGTKVEIERTVAAPSVFIFPPSDEQLKSGTASVVCLLNNFYPREAKVQWKVDNALQSGNSQESVTEQDSKDSTYSLSSTLTLSKADYEKHKVYACEVTHQGLSSPVTKSFNRGEC
notes: also called He Ab T335_16H
B20: GpH7-A5/GpH7-B3 variant T335_19Q/GpL16-k0 (antibody, human IgG1, kappa)
heavy 1: not shown
heavy 2: not shown
light: DIVMTQSPLSLPVTPGEPASISCQASESLVHSNRNTYLHWYLQKPGQSPQLLIYKVSNRFSGVPDRFSGSGSGTDFTLKISRVEAEDVGVYYCSQNTHVPPTFGQGTKVEIERTVAAPSVFIFPPSDEQLKSGTASVVCLLNNFYPREAKVQWKVDNALQSGNSQESVTEQDSKDSTYSLSSTLTLSKADYEKHKVYACEVTHQGLSSPVTKSFNRGEC
notes: also called He Ab T335_19Q

In the first assay the target is T1, FcγRIIa R (extracellular domain with a His tag at the C terminus) (human, UniProt P12318 34-217).
T1 construct: extracellular domain; expressed in FreeStyle293 cells; also called FcgRIIa R; FcγRIIa type R; not shown: His tag at the C terminus
T1 sequence (looked up): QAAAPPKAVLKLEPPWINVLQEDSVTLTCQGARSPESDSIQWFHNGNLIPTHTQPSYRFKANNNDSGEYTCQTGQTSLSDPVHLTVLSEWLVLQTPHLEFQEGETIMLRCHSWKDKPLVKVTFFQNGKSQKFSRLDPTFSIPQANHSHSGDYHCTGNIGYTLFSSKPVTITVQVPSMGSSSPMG
Description: SPR Biacore, relative binding.
Consider B1, for which the Ho/Con_2aR is 102 % of GpH7-B3/GpL16-k0 (=100).
On the same count and under the same terms, the value for B2 was 120 % of GpH7-B3/GpL16-k0 (=100).
Same read-out and setting: in the case of B3 it was 120 % of GpH7-B3/GpL16-k0 (=100); in that of B4, 107 % of GpH7-B3/GpL16-k0 (=100); in that of B5, 100 % of GpH7-B3/GpL16-k0 (=100).
Still for that read-out and setting: in the case of B6 it was 104 % of GpH7-B3/GpL16-k0 (=100); in that of B7, 139 % of GpH7-B3/GpL16-k0 (=100); in that of B8, 131 % of GpH7-B3/GpL16-k0 (=100).
As for B9, the Ho/Con_2aR was 105 % of GpH7-B3/GpL16-k0 (=100).
Same read-out and setting: in the case of B10 it was 110 % of GpH7-B3/GpL16-k0 (=100); in that of B11, 134 % of GpH7-B3/GpL16-k0 (=100).
Same read-out and setting: in the case of B12 it was 122 % of GpH7-B3/GpL16-k0 (=100); in that of B13, 133 % of GpH7-B3/GpL16-k0 (=100); in that of B14, 105 % of GpH7-B3/GpL16-k0 (=100).
Still for that read-out and setting: the value for B15 was 113 % of GpH7-B3/GpL16-k0 (=100); that for B16 was 133 % of GpH7-B3/GpL16-k0 (=100); that for B17 was 101 % of GpH7-B3/GpL16-k0 (=100).
B18: the Ho/Con_2aR was 106 % of GpH7-B3/GpL16-k0 (=100).

Another assay deals with T2, FcγRIIa H (human, UniProt P12318 34-217).
T2 construct: extracellular domain; also called FcgRIIa H type; 2aH; not shown: His tag at the C terminus
T2 sequence (looked up): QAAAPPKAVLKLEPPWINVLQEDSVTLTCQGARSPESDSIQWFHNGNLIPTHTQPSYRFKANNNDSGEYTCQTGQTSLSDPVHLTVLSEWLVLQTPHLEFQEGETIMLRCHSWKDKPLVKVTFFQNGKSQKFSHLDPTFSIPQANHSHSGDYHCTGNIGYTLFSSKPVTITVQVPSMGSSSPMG
Briefly: SPR Biacore, relative binding.
As for B19, the He/Con_2aH is 105 % of GpH7-A5/GpH7-B3/GpL16-k0 (=100).
B20: the He/Con_2aH is 103 % of GpH7-A5/GpH7-B3/GpL16-k0 (=100).
